Patent publication US20250090700A1 (published 2025)

B1: IgG1 (antibody, V domains shown)
VH: QVQLVQSGAEVKKPGASVKVSCKASGFSFTTYWITWVRQAPGQGLEWIGMIHPSDAETRLSQTFKDKATLTADKSTSTAYMELSSLRSEDTAVYYCARDFDVWGQGTLVTVSS
VL: DVVMTQSPLSLPVTLGQPASISCRSSQNIVHQNGQTYLGWYLQKPGQSPQLLIFRVSNRFSGVPDRFSGSGSGTDFTLKISRVEAEDVGVYYCFQGSHIPRTFGQGTRLEIK
B2: IgG4PE (antibody, V domains shown)
VH: QVQLVQSGAEVKKPGASVKVSCKASGFSFTTYWITWVRQAPGQGLEWIGMIHPSDAETRLSQTFKDKATLTADKSTSTAYMELSSLRSEDTAVYYCARDFDVWGQGTLVTVSS
VL: DVVMTQSPLSLPVTLGQPASISCRSSQNIVHQNGQTYLGWYLQKPGQSPQLLIFRVSNRFSGVPDRFSGSGSGTDFTLKISRVEAEDVGVYYCFQGSHIPRTFGQGTRLEIK

Target: synthetic sugar epitope
Test: Biacore (SPR)

| Binder | Kd |
| --- | --- |
| B1 | 3.9 nM |
| B2 | 3.1 nM |
